A short description of this series: yeast display, Sf9 membrane polyspecificity reagent, FACS + sequencing; frameworks hold sequencing errors. In short, it runs like this: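 In a synthetic yeast display library (Saccharomyces cerevisiae BJ5465), nanobody expression was induced with galactose for 36–48 hours. FACS gates were set low and high (top ~1%) using anti-HA fluorescence for expression and streptavidin fluorescence for binding of the Sf9 membrane reagent. Each polyreactivity label is drawn from the gate of origin.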
On to “QVQLVESGGGLVQAGGSLRLSCAASGSIFLSYDMGWYRQAPGKERELVAAITQSGGSTYYADSVKGRFTISRDNAKNTVYLQMNSLKPEDTAVYYCAKEGDSGYWFDYWGQGTQVTVSS”, for which the “polyreactivity (PSR sort gate)” value is listed as “low polyreactivity”.

With “QVQLVESGGGLVQAGGSLRLSCAASGSIFLTNAMGWYRQAPGKEREFVAAIDWGGTITYYADSVKGRFTISRDNAKNTVYLQMNSLKPEDTAVYYCAADPTYPYGYWGQGTQVTVSS”, the “polyreactivity (PSR sort gate)” value is “low polyreactivity”.

With “QVQLVESGGGLVQAGGSLRLSCAASGSIFLVNAMGWYRQAPGKERELVAAITWIGGSTYYADSVKGRFTISRDNAKNTVYLQMNSLKPEDTAVYYCAAYGKRLGGGGYYWGQGTQVTVSS”, the “polyreactivity (PSR sort gate)” value was “high polyreactivity”.

Consider “QVQLVESGGGLVQAGGSLRLSCAASGSIFLVNDKGWYRPAPGKERELVAAISSRGGSTYYADSVKGRFTISRDNAKNTVYLQMNSLKPEDTAVYYCAALQRPLEGLLYYYWGQGTPVTVSS”, for which the “polyreactivity (PSR sort gate)” value is recorded as “low polyreactivity”.

In the case of “QVQLVESGGGLVQAGGSLRLSCAASGSIFLVYAMGWYRQAPGKERELVAAIDWSDTDTYYADSVKGRFTISRDNAKNTFYLQMNSLKPEDTAVYYCAADHVGVDFEYWGQGTQVTVSS”, the “polyreactivity (PSR sort gate)” value was “low polyreactivity”.

For the sequence “QVQLVESGGGLVQAGGSLRLSCAASGSIFLVYAMGWYRQAPGKERELVAAISRSGRTYADSVKGRFTISRDNAKNTVYLQMNSLKPEDTAVYYCNKLAVRPGYGSTYDYWGQGTQVTVSS”, the “polyreactivity (PSR sort gate)” value was “high polyreactivity”.

On to “QVQLVESGGGLVQAGGSLRLSCAASGSIFLVYAMGWYRQAPGKERELVAVIRWRDGSTYYADSVKGRFTISRDNAMNTVYLQMNSLKPEDTAVYYCAADGVIFEYDYWGQGTQVTVSS”, for which the “polyreactivity (PSR sort gate)” value is given as “low polyreactivity”.

Regarding “QVQLVESGGGLVQAGGSLRLSCAASGSIFLVYSMGWYRQAPGKERELVAGITSDDSTNYADSVKGRFTISRDNAKNTVYLQMNSLKPEDTAVYYCAKDSLVWYIVDLGYWGQGTQVTVSS”, the “polyreactivity (PSR sort gate)” value is on record as “low polyreactivity”.

With “QVQLVESGGGLVQAGGSLRLSCAASGSIFLWYTMGWYRQAPGKERELVAAISSSGGSTYYADSVKGRFTISRDNAKNTVYLQTNSLKPEDNAVYYCAAAKLFYYGRKYGKYDYWGQGTQVTVSS”, the “polyreactivity (PSR sort gate)” value is “high polyreactivity”.

Take “QVQLVESGGGLVQAGGSLRLSCAASGSIFLYNAMGWYRPAPRKERELVAAISKSGGSTYYADSVKGRFTISRDNAKNTVYLQMNSLKPEDSAVYYCAAGYGRRIRYGSDYDYWGQGTQVTVSS”: the “polyreactivity (PSR sort gate)” value is reported as “low polyreactivity”.

With “QVQLVESGGGLVQAGGSLRLSCAASGSIFLYNAMGWYRQAPGKERELVAAISASGGSTYYADSVKGRFTISRDNAKNTVYLQMNSLKPEDTAVYYWAAQYSDYDGFTWPLPPRYDYWGQGTQVTVSS”, the “polyreactivity (PSR sort gate)” value is recorded as “high polyreactivity”.

As for “QVQLVESGGGLVQAGGSLRLSCAASGSIFLYNAMGWYRQAPGKERELVADITSAGRTYYADSVKGRFTISRDNAKNTVYLQMNSLKPEDTAVYYCNKDYHYHFSWYGYWGQGTQVTVSS”, the “polyreactivity (PSR sort gate)” value is “low polyreactivity”.

In the case of “QVQLVESGGGLVQAGGSLRLSCAASGSIFLYYAMGWYRPAPGKDRELVAAIRRGGNTNYADSVKGRFTISRDNAKNTVYLQMNSLKPVDTAVYYCAAAQYSRYSRVPNYYAGTYYYWGQGTQVTVSS”, the “polyreactivity (PSR sort gate)” value is recorded as “low polyreactivity”.

Take “QVQLVESGGGLVQAGGSLRLSCAASGSIFLYYAMGWYRQAPGKERELVAAITGGGGTNYADSVKGRFTISRDNAKNTVYLQMNSLKPEDTAVYYCAADTSGQFPYSYYNYDYDYWGQGTQVTVSS”: the “polyreactivity (PSR sort gate)” value is listed as “low polyreactivity”.

Regarding “QVQLVESGGGLVQAGGSLRLSCAASGSIFLYYAMGWYRQAPGKERELVASISSGGSTNYADSVKGRFTISRDNAKNTVYLQMNSLKPEDTAVYYCAARPYGGGRRSIYYYWGQGTQVTVSS”, the “polyreactivity (PSR sort gate)” value is reported as “high polyreactivity”.

“QVQLVESGGGLVQAGGSLRLSCAASGSIFLYYVMGWYRKAPGKERELVAAITWDGGSTYYADSVKGRFTISRDNAKNTVYLQMNSLKPEDTAVYYCNKGFKLWPRYGYDYWGQGTQVTVSS”: the “polyreactivity (PSR sort gate)” value is reported as “low polyreactivity”.

Consider “QVQLVESGGGLVQAGGSLRLSCAASGSIFNAMGWYRQAPGKERELVAAITSGSSTYYADSVKGRFTISRDNAKNTVYLQMNSLKPEDTAVYYCAAGSQRRYYHTNWDSFNYWGQGTQVTVSS”, for which the “polyreactivity (PSR sort gate)” value is listed as “low polyreactivity”.

On to “QVQLVESGGGLVQAGGSLRLSCAASGSIFNAYAMGWYRQAPGKERELVAAISKRTSYADSVKGRFTISRDNAKNTVYLQMNSLKPEDTAVYYCAKEVDEPDGYEYDYWGQGTQVTVSS”, for which the “polyreactivity (PSR sort gate)” value is on record as “low polyreactivity”.

Consider “QVQLVESGGGLVQAGGSLRLSCAASGSIFNEYAMGCYRQAPGKERELVAAISTSGDITYYADSVKGRFTISRDNAKNTVDLQMNSLKPEDTAVYYCAAKYSLLRQYNRLDSWGQGTQVTVSS”, for which the “polyreactivity (PSR sort gate)” value is on record as “low polyreactivity”.

Turning to “QVQLVESGGGLVQAGGSLRLSCAASGSIFNGYAMGWYRQAPGKERELVADIRSGGSTYYADSVKGRFTISRDNAKNTVYLQMNSLKPEDTAVYYCAADTITDGYDYWGQGTQVTVSS”, the “polyreactivity (PSR sort gate)” value is “low polyreactivity”.

Turning to “QVQLVESGGGLVQAGGSLRLSCAASGSIFNKYAMGWYRQAPGKERELVATISFRGGSTYADSVKGRFTISRDNAKNTVYLQMNSLKPEDTAVYYCATKSGRNSPRMDYWGQGTQVTVSS”, the “polyreactivity (PSR sort gate)” value is “high polyreactivity”.

“QVQLVESGGGLVQAGGSLRLSCAASGSIFNRNVMGWYRQAPGKERELVAAITWSGASTYYADSVKGRFTISRDNAKNTVYLQMNSLKPEDTAVYYCAATQYYRGYDYWGQGTQVTVSS”: the “polyreactivity (PSR sort gate)” value is on record as “high polyreactivity”.

In the case of “QVQLVESGGGLVQAGGSLRLSCAASGSIFNRYAMGWYRPAPGKERELVAAISRSGGRTYYADSVKGRFTISRDNAKNTVYLQMNSLKPEDTAVYYCAADKYYRQHEFDYWGQGTQVTVSS”, the “polyreactivity (PSR sort gate)” value is given as “high polyreactivity”.

In the case of “QVQLVESGGGLVQAGGSLRLSCAASGSIFNRYAMGWYRQAPGKERELVAAISTHTGTTYYADSVKGRFTISRDNAKNTDYLQMNSLKPEDTAGYYCAKRSRYGYGKSYDYWGQGTQVTVSS”, the “polyreactivity (PSR sort gate)” value is listed as “high polyreactivity”.

In the case of “QVQLVESGGGLVQAGGSLRLSCAASGSIFNRYAMGWYRQAPGKERELVAAISTHTGTTYYADSVKGRFTISRDNAKNTVYLQMNSLKPEDTAVYYCAKRSRYGYGKSYDYWGQGTQVTVSS”, the “polyreactivity (PSR sort gate)” value is given as “high polyreactivity”.

As to “QVQLVESGGGLVQAGGSLRLSCAASGSIFNSNAMGWYRQAPGKERELVAAITGSGGRTYYADSVKGRFTISRDNAKNTVYLQMNSLKPEDTAVYYCNAVTYSRRYAYYDWGQGTQVTVSS”, the “polyreactivity (PSR sort gate)” value was “high polyreactivity”.

On to “QVQLVESGGGLVQAGGSLRLSCAASGSIFNVNTMGWYRQAPGKERELVAAISYSGGSTYYADSVKGRFTISRDTAKNTVYLQMNSLKPEDTAVYYCAAESYIEYYLKYDYWGQGTQVTVSS”, for which the “polyreactivity (PSR sort gate)” value is given as “low polyreactivity”.

“QVQLVESGGGLVQAGGSLRLSCAASGSIFNVYAMGWYRQAPGKERELVAAISDGDGSTFYADSVKGRFTISRDNAKNTVYLQMNSLKPEDTAVYYCAKDYRWDSKFDYWGQGTQVTVSS”: the “polyreactivity (PSR sort gate)” value was “low polyreactivity”.

With “QVQLVESGGGLVQAGGSLRLSCAASGSIFNVYAMGWYRQAPGKERELVAAISDGDGSTFYADSVKGRFTISRDNAKTTVYLQMNSLKPEDTAVYYCAKDYRWDRKFDYWGQGTQVTVSS”, the “polyreactivity (PSR sort gate)” value was “low polyreactivity”.

For “QVQLVESGGGLVQAGGSLRLSCAASGSIFNVYGMGWYRQAPGKERELVAAISKSGTSTSYADSVKGRFTISRDNAKNTVYLQMNSLKPEDTAVYYRNAGYRTWWGKKYDYWGQGTQVTVSS”, the “polyreactivity (PSR sort gate)” value is recorded as “low polyreactivity”.

As to “QVQLVESGGGLVQAGGSLRLSCAASGSIFNWNAMGWYRQAPGKERDLVATITITTSTNYADSVKGRFTISRDNAKNSVYLQMNCLKPEDNGVYYCNAGDPYRYLDDYNYWGQGTKVTVSS”, the “polyreactivity (PSR sort gate)” value is “low polyreactivity”.

As to “QVQLVESGGGLVQAGGSLRLSCAASGSIFNWYTMGWYRQAPGKERELVAVITQSGGSTYYADSVKGRFTISRDNAKNTVYLQMNSLKPEDTAVYYCAKRYWSYQYGYRMYYWGQGTQVTVSS”, the “polyreactivity (PSR sort gate)” value is “high polyreactivity”.

As to “QVQLVESGGGLVQAGGSLRLSCAASGSIFNYNAMGWYREAPRKERELVAAITWRGGTTSYADSVKGRFSISRDNAKNTVYLQMNSLKPEDTAVYYCNAYQWRHRYTMYYWGQGTQVTVSS”, the “polyreactivity (PSR sort gate)” value was “high polyreactivity”.

“QVQLVESGGGLVQAGGSLRLSCAASGSIFNYNMGWYRQAPGKERELVAAVSTNYADSVKGRFTISRDNAKNTVYLQMNSLKPEDPAGYYCGVTPEKSGDQYDYWGPGTQVTVSS”: the “polyreactivity (PSR sort gate)” value is reported as “low polyreactivity”.

For “QVQLVESGGGLVQAGGSLRLSCAASGSIFNYYAMGRYRQAPGKERELVAAIETTGGSTYYADSVKGRFTISRDNAKNTVYLQMNSLKPEDTAVYYCAATWAKPWYYEYDYWGQGTQVTVSS”, the “polyreactivity (PSR sort gate)” value was “low polyreactivity”.

As for “QVQLVESGGGLVQAGGSLRLSCAASGSIFNYYAMGWYRQAPGKEREFVAGITTSGGSTYYADSVKGRFTISRDNAKNTVCLQMNSLKPEDTAVYYCAAYDYISSTYFLDDYWGQGTQVTVSS”, the “polyreactivity (PSR sort gate)” value is on record as “low polyreactivity”.

For “QVQLVESGGGLVQAGGSLRLSCAASGSIFNYYAMGWYRQAPGKERELVAAIRSTGSTNYADSVKGRFTISRDNAKNTVYLQMNSLKPEDTAVYYCATDVSDWLYFAEHYYWGQGTQVTVSS”, the “polyreactivity (PSR sort gate)” value is on record as “low polyreactivity”.

Take “QVQLVESGGGLVQAGGSLRLSCAASGSIFNYYAMGWYRQAPGKERELVAGITTSGGSTYYADSVKGRFTISRDNAKNTVYFQMHSLKPEDTAVYYGAAYDYISSTYFLDDYWGQGTQVTVSS”: the “polyreactivity (PSR sort gate)” value is on record as “low polyreactivity”.

For “QVQLVESGGGLVQAGGSLRLSCAASGSIFNYYAMGWYRQAPGKERELVATISSGGNTKYADSVKGRFTISRDNAKNTVYLQMNSLKPEDTAVYYCAARWQHSGYRDRYWYDYWGQGTQVTVSS”, the “polyreactivity (PSR sort gate)” value is “low polyreactivity”.

In the case of “QVQLVESGGGLVQAGGSLRLSCAASGSIFNYYAMGWYRQAPGKERELVATITRGGSTYYADSVKGRFTISRDNAKNTVYLQMNRLKPEDTAVYYCAKVGRSTAYQNGYDYWGQGTQVTVSS”, the “polyreactivity (PSR sort gate)” value is on record as “low polyreactivity”.

Take “QVQLVESGGGLVQAGGSLRLSCAASGSIFNYYAMGWYRQAPGKVRELVATISSGGNTKFADSVKGRFTISRDNAKNTVYLQMKSLKPEDTAVYFCGARWQHSGYRDRYCYDYWGQGTQVTVSS”: the “polyreactivity (PSR sort gate)” value is given as “low polyreactivity”.

Values taken from the nanobody polyreactivity screen of Harvey et al. (2022).
